{"source": "paper PMC6288486", "tested_on": "His9", "experiment": "UV-vis", "settings": "25 °C; none; pH adjusted with NaOH (1, 0.1, 0.01 M) and TFA (0.1 and 1% v/v in water); Mn(III) resting state, 15 µM. Transition from bis-aquo (species 1) to His-aquo (species 2) axial coordination. Helical fold stabilised by 40% TFE."}
{"substance": "Mn-Mimochrome VI*a (Mn-MC6*a) (synthetic construct)", "values": [{"measurement": "pKa", "value": 4.0}]}
